In one assay the target is β1AR-84 (minimally thermostabilised turkey β1 adrenergic receptor construct) (turkey) (UniProt P07700). In words: cell-based or functional assay.
β1AR-WT (wild type-like turkey β1 adrenergic receptor construct) (turkey), sequence (P07700 other isoform, or with tags, fused parts or gaps limits assumed): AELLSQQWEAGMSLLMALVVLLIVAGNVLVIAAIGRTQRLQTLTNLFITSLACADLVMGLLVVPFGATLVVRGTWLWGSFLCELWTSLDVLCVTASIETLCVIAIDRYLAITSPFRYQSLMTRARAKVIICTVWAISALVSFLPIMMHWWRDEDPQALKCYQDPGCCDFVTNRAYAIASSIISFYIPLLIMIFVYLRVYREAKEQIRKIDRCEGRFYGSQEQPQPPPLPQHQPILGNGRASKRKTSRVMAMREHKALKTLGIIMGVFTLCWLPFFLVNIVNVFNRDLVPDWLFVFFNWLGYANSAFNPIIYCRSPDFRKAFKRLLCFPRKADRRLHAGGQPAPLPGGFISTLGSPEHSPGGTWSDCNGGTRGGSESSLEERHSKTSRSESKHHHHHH
β1AR-84 (minimally thermostabilised turkey β1 adrenergic receptor construct) (turkey), sequence (P07700 other isoform, or with tags, fused parts or gaps): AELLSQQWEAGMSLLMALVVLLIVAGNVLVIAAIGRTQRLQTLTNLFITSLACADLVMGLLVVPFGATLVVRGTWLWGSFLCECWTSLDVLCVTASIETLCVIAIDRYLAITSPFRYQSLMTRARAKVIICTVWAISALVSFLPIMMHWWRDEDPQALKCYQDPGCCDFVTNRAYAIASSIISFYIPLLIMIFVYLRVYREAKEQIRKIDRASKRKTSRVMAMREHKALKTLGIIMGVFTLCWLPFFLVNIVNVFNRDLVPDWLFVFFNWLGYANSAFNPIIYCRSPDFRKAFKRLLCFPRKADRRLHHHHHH
near wild type β1AR construct (β6), sequence (P07700 33-424): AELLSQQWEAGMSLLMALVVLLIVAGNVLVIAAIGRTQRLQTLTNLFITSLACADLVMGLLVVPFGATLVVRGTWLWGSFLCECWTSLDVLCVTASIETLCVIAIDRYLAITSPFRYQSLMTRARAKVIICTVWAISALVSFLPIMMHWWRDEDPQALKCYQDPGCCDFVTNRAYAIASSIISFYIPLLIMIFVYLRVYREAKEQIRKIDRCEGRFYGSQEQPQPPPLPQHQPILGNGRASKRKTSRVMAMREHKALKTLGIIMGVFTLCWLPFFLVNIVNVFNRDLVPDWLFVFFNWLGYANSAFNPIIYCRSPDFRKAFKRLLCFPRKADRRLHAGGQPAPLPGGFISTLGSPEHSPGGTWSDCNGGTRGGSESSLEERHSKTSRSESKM
As to Nb80 (VHH), the fold shift of isoprenaline Ki of β1AR-84 was determined as 93 fold; the isoprenaline Ki of DDM-solubilised β1AR-84 (alone […] µM) stood at 0.083 µM; the isoprenaline Ki of β1AR-84, 20 °C (alone […] nM) is 28 nM.
For “non-lipidated heterotrimeric Gs (Gαsβ1γ2) (from UniProt P62873 2-340; P59768 2-71)”, the fold shift of isoprenaline Ki of β1AR-84 was 9.6 fold; the isoprenaline Ki of β1AR-84, 4 °C (alone […] nM) worked out at 419 nM; the isoprenaline Ki of β1AR-84, 20 °C (alone […] nM) turned out to be 271 nM; the isoprenaline Ki of β1AR-84 with 0.25 mM GTPγS (alone 3.0 µM) is 2700 nM.
Take “Gs-Nb35 (non-lipidated heterotrimeric Gs with nanobody Nb35) (from UniProt P62873 2-340; P59768 2-71)”: the fold shift of isoprenaline Ki of β1AR-84 amounted to 163 fold; the isoprenaline Ki of DDM-solubilised β1AR-84 (alone […] µM) is 0.023 µM; the isoprenaline Ki of β1AR-84, 20 °C (alone […] nM) was 16 nM.

The next assay has as its target β1AR-WT (wild type-like turkey β1 adrenergic receptor construct) (turkey) (UniProt P07700). In words: cell-based or functional assay.
On to Nb80 (VHH), for which the apparent Tm of β1AR-WT complex in DDM (receptor alone 25.9 °C) was found to be 32 °C, the apparent Tm of β1AR-WT complex in decylmaltoside (receptor alone 20.4 °C) was found to be 28.6 °C, the apparent Tm of β1AR-WT complex in nonylglucoside (uncoupled receptor did not survive) amounted to 16.7 °C and the apparent Tm of β1AR-WT complex in octylglucoside (uncoupled receptor did not survive) was 14.3 °C. The fold shift of isoprenaline Ki of β1AR-WT stood at 6.9 fold, the isoprenaline Ki of membrane-embedded β1AR-WT (alone 40 nM) turned out to be 5.8 nM and the norepinephrine Ki of β1AR-WT (alone 158 nM) turned out to be 0.7 nM.
As to “non-lipidated heterotrimeric Gs (Gαsβ1γ2) (from UniProt P62873 2-340; P59768 2-71)”, the fold shift of isoprenaline Ki of β1AR-WT is 2.4 fold and the isoprenaline Ki of membrane-embedded β1AR-WT (alone 40 nM) was found to be 17 nM.
“Gs-Nb35 (non-lipidated heterotrimeric Gs with nanobody Nb35) (from UniProt P62873 2-340; P59768 2-71)”: the apparent Tm of β1AR-WT complex in DDM (receptor alone 25.9 °C) was found to be 35.8 °C, the apparent Tm of β1AR-WT complex in decylmaltoside (receptor alone 20.4 °C) was determined as 31.1 °C, the apparent Tm of β1AR-WT complex in nonylglucoside (uncoupled receptor did not survive) was determined as 19 °C and the apparent Tm of β1AR-WT complex in octylglucoside (uncoupled receptor did not survive) turned out to be 13.6 °C. The fold shift of isoprenaline Ki of β1AR-WT stood at 5.9 fold, the isoprenaline Ki of membrane-embedded β1AR-WT (alone 40 nM) turned out to be 6.8 nM and the norepinephrine Ki of β1AR-WT (alone 158 nM) was determined as 0.36 nM.

The target in the next assay is wild type A2AR in HEK293 cell membranes (UniProt P29274). As to the kind of experiment: cell-based or functional assay.
wild type A2AR in HEK293 cell membranes, sequence (P29274 whole entry): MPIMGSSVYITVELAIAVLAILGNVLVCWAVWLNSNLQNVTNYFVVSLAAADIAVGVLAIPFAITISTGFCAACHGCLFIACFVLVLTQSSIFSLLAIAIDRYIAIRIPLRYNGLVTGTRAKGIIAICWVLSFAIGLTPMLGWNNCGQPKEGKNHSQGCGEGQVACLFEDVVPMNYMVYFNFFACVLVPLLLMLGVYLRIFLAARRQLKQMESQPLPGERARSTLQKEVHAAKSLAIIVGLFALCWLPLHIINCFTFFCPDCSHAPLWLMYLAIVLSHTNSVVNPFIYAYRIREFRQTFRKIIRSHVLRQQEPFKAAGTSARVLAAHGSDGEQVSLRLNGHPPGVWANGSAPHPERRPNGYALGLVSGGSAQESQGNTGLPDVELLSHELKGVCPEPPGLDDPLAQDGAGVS
In turn, “Gs-Nb35 (non-lipidated heterotrimeric Gs with nanobody Nb35) (from UniProt P62873 2-340; P59768 2-71)” registered an NECA Ki of A2AR in HEK293 membranes, 100 mM NaCl (alone 4.6 µM) of 340 nM.

Another assay has as its target near wild type β1AR construct (β6) (UniProt P07700). As to the kind of experiment: cell-based or functional assay.
As to Nb80 (VHH), the fold increase of isoprenaline affinity of the near wild-type β1AR was 3.5 fold and the isoprenaline IC50 of β6 (alone […] nM) stood at 51 nM.

The target in another assay is β84 (minimally thermostabilised β1AR construct of Example 2) (UniProt P07700). In words: cell-based or functional assay.
Consider “Gαs GTPase domain S252D (from UniProt P63092 45-394)”, for which the isoprenaline IC50 of β84, 4 °C stood at 21 nM and the isoprenaline IC50 of β84, 20 °C turned out to be 142 nM.
The matching figures for Gαs GTPase domain Δ227-230/GG linker: 34 nM and 799 nM.
The matching figures for “Gαs GTPase domain C237E (from UniProt P63092 45-394)”: 93 nM and 1900 nM.
As to “Gαs GTPase domain A249D (from UniProt P63092 45-394)”, the isoprenaline IC50 of β84, 4 °C stood at 15 nM and the isoprenaline IC50 of β84, 20 °C turned out to be 53 nM.
The matching figures for “Gαs GTPase domain F208N (from UniProt P63092 45-394)”: 250 nM and 1300 nM.
The matching figures for “Gαs GTPase domain N279E/I235K (from UniProt P63092 45-394)”: 1200 nM and 2800 nM.
As to “Gαs GTPase domain R356D (from UniProt P63092 45-394)”, the isoprenaline IC50 of β84, 4 °C stood at 161 nM and the isoprenaline IC50 of β84, 20 °C came to 3300 nM.
“GTPase domain with βγ-dimer and Nb35 (from UniProt P62873 2-340; P59768 2-71)” yielded an isoprenaline IC50 of β84, 20 °C (alone […] µM) of 0.206 µM.
“Gαs GTPase domain Y37R/R42D (from UniProt P63092 45-394)” registered an isoprenaline IC50 of β84, 4 °C of 2300 nM.
Turning to Gαs GTPase domain Δ254-263/Y253P, the isoprenaline IC50 of β84, 4 °C came out at 23 nM and the isoprenaline IC50 of β84, 20 °C turned out to be 142 nM.
For “isolated GTPase domain of Gαs (Example 2, FIG. 14)”, the isoprenaline IC50 of β84, 4 °C (alone […] µM) came out at 0.253 µM and the isoprenaline IC50 of β84, 20 °C (alone […] µM) was 3.4 µM.
For the substance “Gαs GTPase domain A249S (from UniProt P63092 45-394)”, the isoprenaline IC50 of β84, 4 °C amounted to 146 nM and the isoprenaline IC50 of β84, 20 °C came out at 1600 nM.
The substance “Gαs GTPase domain S54N (from UniProt P63092 45-394)” returned an isoprenaline IC50 of β84, 4 °C of 462 nM.
In turn, “Gαs GTPase domain L272E (from UniProt P63092 45-394)” displayed an isoprenaline IC50 of β84, 4 °C of 42 nM and an isoprenaline IC50 of β84, 20 °C of 110 nM.
Turning to Gαs GTPase domain Δ255-262/G linker, the isoprenaline IC50 of β84, 4 °C was 1300 nM.
In the case of “Gαs GTPase domain H41I (from UniProt P63092 45-394)”, the isoprenaline IC50 of β84, 4 °C stood at 58 nM and the isoprenaline IC50 of β84, 20 °C stood at 589 nM.
The substance Nb80 (VHH) came in with an isoprenaline IC50 of β84 (alone […] µM) of 0.016 µM.
“Gαs GTPase domain W234A/F238A (from UniProt P63092 45-394)” showed an isoprenaline IC50 of β84, 4 °C of 584 nM and an isoprenaline IC50 of β84, 20 °C of 4000 nM.
For the substance “non-lipidated heterotrimeric Gs (Gαsβ1γ2) (from UniProt P62873 2-340; P59768 2-71)”, the isoprenaline IC50 of β84 (alone […] µM) worked out at 1.4 µM.
Turning to “Gαs GTPase domain R199D (from UniProt P63092 45-394)”, the isoprenaline IC50 of β84, 4 °C amounted to 109 nM and the isoprenaline IC50 of β84, 20 °C came to 1800 nM.
With “Gαs GTPase domain V36D/N218K/T40A (from UniProt P63092 45-394)”, the isoprenaline IC50 of β84, 4 °C worked out at 551 nM and the isoprenaline IC50 of β84, 20 °C stood at 2400 nM.
The substance “Gαs GTPase domain parental construct (Example 2) (from UniProt P63092 45-394)” yielded an isoprenaline IC50 of β84, 4 °C of 136 nM.
The substance “Gαs GTPase domain V36D/N218K/T40D (from UniProt P63092 45-394)” gave an isoprenaline IC50 of β84, 4 °C of 427 nM and an isoprenaline IC50 of β84, 20 °C of 3200 nM.
For “Gαs GTPase domain D240G (from UniProt P63092 45-394)”, in that order: 510 nM and 4400 nM.
In turn, “Gαs GTPase domain D295N (from UniProt P63092 45-394)” displayed an isoprenaline IC50 of β84, 4 °C of 2400 nM.
The substance “Gαs GTPase domain N279D/Q235K (from UniProt P63092 45-394)” yielded an isoprenaline IC50 of β84, 4 °C of 102 nM and an isoprenaline IC50 of β84, 20 °C of 2000 nM.
For “Gαs GTPase domain R199K (from UniProt P63092 45-394)”, the isoprenaline IC50 of β84, 4 °C is 108 nM and the isoprenaline IC50 of β84, 20 °C turned out to be 1900 nM.
The matching figures for “Gαs GTPase domain G49D (from UniProt P63092 45-394)”: 37 nM and 428 nM.
For “Gαs GTPase domain S275D (from UniProt P63092 45-394)”, in that order: 136 nM and 2000 nM.
The matching figures for “Gαs GTPase domain H41L (from UniProt P63092 45-394)”: 285 nM and 3900 nM.
“Gαs GTPase domain E50N (from UniProt P63092 45-394)”: the isoprenaline IC50 of β84, 4 °C was determined as 55 nM and the isoprenaline IC50 of β84, 20 °C stood at 1100 nM.
Consider “Gs-Nb35 (non-lipidated heterotrimeric Gs with nanobody Nb35) (from UniProt P62873 2-340; P59768 2-71)”, for which the isoprenaline IC50 of β84 (alone […] µM) is 0.068 µM.
“Gαs GTPase domain V36D/N218K (from UniProt P63092 45-394)” gave an isoprenaline IC50 of β84, 4 °C of 115 nM.
“Gαs GTPase domain H41V (from UniProt P63092 45-394)”: the isoprenaline IC50 of β84, 4 °C was 77 nM and the isoprenaline IC50 of β84, 20 °C stood at 737 nM.
Substance “Gαs GTPase domain G226A (from UniProt P63092 45-394)” gave an isoprenaline IC50 of β84, 4 °C of 127 nM and an isoprenaline IC50 of β84, 20 °C of 1200 nM.
“Gαs GTPase domain S252E (from UniProt P63092 45-394)” had an isoprenaline IC50 of β84, 4 °C of 57 nM and an isoprenaline IC50 of β84, 20 °C of 575 nM.
For “Gαs GTPase domain H41M (from UniProt P63092 45-394)”, in that order: 307 nM and 1800 nM.
The matching figures for “Gαs GTPase domain R356S (from UniProt P63092 45-394)”: 229 nM and 2800 nM.
Consider “Gαs GTPase domain L270N/I348N (from UniProt P63092 45-394)”, for which the isoprenaline IC50 of β84, 4 °C is 4300 nM.
For “Gαs GTPase domain G49D/E50N (from UniProt P63092 45-394)”, the isoprenaline IC50 of β84, 4 °C came to 44 nM and the isoprenaline IC50 of β84, 20 °C is 364 nM.
The matching figures for “Gαs GTPase domain A48D (from UniProt P63092 45-394)”: 185 nM and 1800 nM.
For the substance Gαs GTPase domain Δ254-263, the isoprenaline IC50 of β84, 4 °C came to 31 nM and the isoprenaline IC50 of β84, 20 °C worked out at 30 nM.
The matching figures for “Gαs GTPase domain A249E (from UniProt P63092 45-394)”: 104 nM and 582 nM.
“Gαs GTPase domain S286C/I382C (from UniProt P63092 45-394)” came in with an isoprenaline IC50 of β84, 4 °C of 4200 nM and an isoprenaline IC50 of β84, 20 °C of 7000 nM.
The matching figures for “Gαs GTPase domain Y37D (from UniProt P63092 45-394)”: 81 nM and 2000 nM.
Substance “Gαs GTPase domain L272D (from UniProt P63092 45-394)” came in with an isoprenaline IC50 of β84, 4 °C of 10 nM and an isoprenaline IC50 of β84, 20 °C of 464 nM.
For “Gαs GTPase domain R201A (from UniProt P63092 45-394)”, in that order: 46 nM and 2200 nM.

Values taken from US20190032033A1.
